Results reported in patent US7977317B2, “Compositions and methods for modulating blood-brain barrier transport” (Raptor Pharmaceutical Inc., priority 2001, dated 2011).
Where two headings read alike, the source gives them in different places.

B1: p97: recombinant human melanotransferrin (p97), provided by Synapse Technologies (protein, UniProt P08582 20-709, looked up)
Melanotransferrin: GMEVRWCATSDPEQHKCGNMSEAFREAGIQPSLLCVRGTSADHCVQLIAAQEADAITLDGGAIYEAGKEHGLKPVVGEVYDQEVGTSYYAVAVVRRSSHVTIDTLKGVKSCHTGINRTVGWNVPVGYLVESGRLSVMGCDVLKAVSDYFGGSCVPGAGETSYSESLCRLCRGDSSGEGVCDKSPLERYYDYSGAFRCLAEGAGDVAFVKHSTVLENTDGKTLPSWGQALLSQDFELLCRDGSRADVTEWRQCHLARVPAHAVVVRADTDGGLIFRLLNEGQRLFSHEGSSFQMFSSEAYGQKDLLFKDSTSELVPIATQTYEAWLGHEYLHAMKGLLCDPNRLPPYLRWCVLSTPEIQKCGDMAVAFRRQRLKPEIQCVSAKSPQHCMERIQAEQVDAVTLSGEDIYTAGKTYGLVPAAGEHYAPEDSSNSYYVVAVVRRDSSHAFTLDELRGKRSCHAGFGSPAGWDVPVGALIQRGFIRPKDCDVLTAVSEFFNASCVPVNNPKNYPSSLCALCVGDEQGRNKCVGNSQERYYGYRGAFRCLVENAGDVAFVRHTTVFDNTNGHNSEPWAAELRSEDYELLCPNGARAEVSQFAACNLAQIPPHAVMVRPDTNIFTVYGLLDKAQDLFGDDHNKNGFKMFDSSNYHGQDLLFKDATVRAVPVGEKTTYRGWLGLDYVAALEGMSSQQC
B2: lactoferrin: lactoferrin (Lf), LRP ligand used as competitor (protein, UniProt P02788 20-710, looked up)
Lactotransferrin: GRRRSVQWCAVSQPEATKCFQWQRNMRKVRGPPVSCIKRDSPIQCIQAIAENRADAVTLDGGFIYEAGLAPYKLRPVAAEVYGTERQPRTHYYAVAVVKKGGSFQLNELQGLKSCHTGLRRTAGWNVPIGTLRPFLNWTGPPEPIEAAVARFFSASCVPGADKGQFPNLCRLCAGTGENKCAFSSQEPYFSYSGAFKCLRDGAGDVAFIRESTVFEDLSDEAERDEYELLCPDNTRKPVDKFKDCHLARVPSHAVVARSVNGKEDAIWNLLRQAQEKFGKDKSPKFQLFGSPSGQKDLLFKDSAIGFSRVPPRIDSGLYLGSGYFTAIQNLRKSEEEVAARRARVVWCAVGEQELRKCNQWSGLSEGSVTCSSASTTEDCIALVLKGEADAMSLDGGYVYTAGKCGLVPVLAENYKSQQSSDPDPNCVDRPVEGYLAVAVVRRSDTSLTWNSVKGKKSCHTAVDRTAGWNIPMGLLFNQTGSCKFDEYFSQSCAPGSDPRSNLCALCIGDEQGENKCVPNSNERYYGYTGAFRCLAENAGDVAFVKDVTVLQNTDGNNNEAWAKDLKLADFALLCLDGKRKPVTEARSCHLAMAPNHAVVSRMDKVERLKQVLLHQQAKFGRNGSDCPDKFCLFQSETKNLLFNDNTECLARLHGKTTYEKYLGPQYVAGITNLKKCSTSPLLEACEFLRK

Assays:
[1] = In situ brain perfusion with capillary depletion; type: in vivo; details: mice, 10 min perfusion
Experimental: FIG. 11 examines the accumulation and transcytosis of p97. FIG. 11a, of [^125I]-p97, [^125I]-BSA and [^125I]-holo-transferrin one hour after i.v. injection. The radioactivity in brain was compared between the three compounds. (n=3); FIG. 11b, Accumulation of p97 and transferrin into the mouse brain parenchyma. In situ brain perfusion was performed with human [^125I]-p97 or [^125I]-holo-transferrin at a final concentration of 10 nM via a catheter inserted in the right common carotid artery. The volume of distribution (VD) of [^125I]-proteins were obtained in the whole brain homogenate (white bars), in brain capillaries (solid bars) and in brain parenchyma (hatched bars) after isolation of the right hemisphere and capillary depletion. Results were obtained for p97 (n=10) and for holo-transferrin (n=6); FIG. 11c, Transcytosis of p97 across BBCEC monolayers. Transcytosis experiments were performed 37° C. (open circles) and 4° C. (closed circles) with BBCEC monolayers. […] Apical-to-basal and basal-to-apical transport of [^125I]-p97 (25 nM) was measured for 2 hrs at 37° C. At the end of the experiment, [^125I]-p97 was assessed in the lower or upper chambers of each well by TCA precipitation (n=4).
A. Brain uptake and in situ brain perfusion. […] The serum and brain samples were collected and the levels of radioactivity were measured. […]

[2] = tested on: astrocytes and astrocytoma cells; assay: Uptake of [125I]-p97 in rat astrocytes and astrocytoma cells; type: cell-based; details: 50 nM p97, 2 h at 37° C. (FIG. 24)
Experimental: FIG. 24. Uptake of p97 in rat astrocytes and astrocytoma cells. Cells were grown in monolayer in six-multiwell microplates at 37° C. under 5% CO2. Uptake of [^125I]-p97 was measured at 37° C. for 2 h in astrocytes and astrocytomas. The incubation medium contained [^125I]-p97 and a final concentration of 50 nM p97 in Ringer/Hepes solution. After incubation, the cell monolayer was washed three times with cold Ringer/Hepes solution. Triton X-100 0.1% was added and the [^125I]-p97 uptake was assessed in the Triton X-100 soluble fraction by TCA precipitation. Results represent means±SD (n=3, Astro; n=6, CTX and RG2; n=9, C6).
Uptake of [^125I]-p97. Cells were grown in monolayer in six-multiwell microplates at 37° C. under 5% CO2. Uptake of [^125I]-p97 was measured at 37° C. for 2 h in astrocytes and astrocytomas. The incubation medium contained [^125I]-p97 and a final concentration of 50 nM P97 in Ringer/Hepes solution. The uptake of [^125I]-p97 was performed in presence or in absence of 5 μM cold-P97. After incubation, the cell monolayer was wash three times with cold Ringer/Hepes solution. Triton X-100 0.1% was added and the [^125I]-p97 uptake was assessed in the Triton X-100 soluble fraction by TCA precipitation.

BBCEC monolayers = details: −saponin, cited from earlier work
Megalin = Megalin (Homo sapiens, UniProt P98164); details: Tables 1-3; cited from earlier work
Sequence of Megalin (P98164 26-4655, species assumed): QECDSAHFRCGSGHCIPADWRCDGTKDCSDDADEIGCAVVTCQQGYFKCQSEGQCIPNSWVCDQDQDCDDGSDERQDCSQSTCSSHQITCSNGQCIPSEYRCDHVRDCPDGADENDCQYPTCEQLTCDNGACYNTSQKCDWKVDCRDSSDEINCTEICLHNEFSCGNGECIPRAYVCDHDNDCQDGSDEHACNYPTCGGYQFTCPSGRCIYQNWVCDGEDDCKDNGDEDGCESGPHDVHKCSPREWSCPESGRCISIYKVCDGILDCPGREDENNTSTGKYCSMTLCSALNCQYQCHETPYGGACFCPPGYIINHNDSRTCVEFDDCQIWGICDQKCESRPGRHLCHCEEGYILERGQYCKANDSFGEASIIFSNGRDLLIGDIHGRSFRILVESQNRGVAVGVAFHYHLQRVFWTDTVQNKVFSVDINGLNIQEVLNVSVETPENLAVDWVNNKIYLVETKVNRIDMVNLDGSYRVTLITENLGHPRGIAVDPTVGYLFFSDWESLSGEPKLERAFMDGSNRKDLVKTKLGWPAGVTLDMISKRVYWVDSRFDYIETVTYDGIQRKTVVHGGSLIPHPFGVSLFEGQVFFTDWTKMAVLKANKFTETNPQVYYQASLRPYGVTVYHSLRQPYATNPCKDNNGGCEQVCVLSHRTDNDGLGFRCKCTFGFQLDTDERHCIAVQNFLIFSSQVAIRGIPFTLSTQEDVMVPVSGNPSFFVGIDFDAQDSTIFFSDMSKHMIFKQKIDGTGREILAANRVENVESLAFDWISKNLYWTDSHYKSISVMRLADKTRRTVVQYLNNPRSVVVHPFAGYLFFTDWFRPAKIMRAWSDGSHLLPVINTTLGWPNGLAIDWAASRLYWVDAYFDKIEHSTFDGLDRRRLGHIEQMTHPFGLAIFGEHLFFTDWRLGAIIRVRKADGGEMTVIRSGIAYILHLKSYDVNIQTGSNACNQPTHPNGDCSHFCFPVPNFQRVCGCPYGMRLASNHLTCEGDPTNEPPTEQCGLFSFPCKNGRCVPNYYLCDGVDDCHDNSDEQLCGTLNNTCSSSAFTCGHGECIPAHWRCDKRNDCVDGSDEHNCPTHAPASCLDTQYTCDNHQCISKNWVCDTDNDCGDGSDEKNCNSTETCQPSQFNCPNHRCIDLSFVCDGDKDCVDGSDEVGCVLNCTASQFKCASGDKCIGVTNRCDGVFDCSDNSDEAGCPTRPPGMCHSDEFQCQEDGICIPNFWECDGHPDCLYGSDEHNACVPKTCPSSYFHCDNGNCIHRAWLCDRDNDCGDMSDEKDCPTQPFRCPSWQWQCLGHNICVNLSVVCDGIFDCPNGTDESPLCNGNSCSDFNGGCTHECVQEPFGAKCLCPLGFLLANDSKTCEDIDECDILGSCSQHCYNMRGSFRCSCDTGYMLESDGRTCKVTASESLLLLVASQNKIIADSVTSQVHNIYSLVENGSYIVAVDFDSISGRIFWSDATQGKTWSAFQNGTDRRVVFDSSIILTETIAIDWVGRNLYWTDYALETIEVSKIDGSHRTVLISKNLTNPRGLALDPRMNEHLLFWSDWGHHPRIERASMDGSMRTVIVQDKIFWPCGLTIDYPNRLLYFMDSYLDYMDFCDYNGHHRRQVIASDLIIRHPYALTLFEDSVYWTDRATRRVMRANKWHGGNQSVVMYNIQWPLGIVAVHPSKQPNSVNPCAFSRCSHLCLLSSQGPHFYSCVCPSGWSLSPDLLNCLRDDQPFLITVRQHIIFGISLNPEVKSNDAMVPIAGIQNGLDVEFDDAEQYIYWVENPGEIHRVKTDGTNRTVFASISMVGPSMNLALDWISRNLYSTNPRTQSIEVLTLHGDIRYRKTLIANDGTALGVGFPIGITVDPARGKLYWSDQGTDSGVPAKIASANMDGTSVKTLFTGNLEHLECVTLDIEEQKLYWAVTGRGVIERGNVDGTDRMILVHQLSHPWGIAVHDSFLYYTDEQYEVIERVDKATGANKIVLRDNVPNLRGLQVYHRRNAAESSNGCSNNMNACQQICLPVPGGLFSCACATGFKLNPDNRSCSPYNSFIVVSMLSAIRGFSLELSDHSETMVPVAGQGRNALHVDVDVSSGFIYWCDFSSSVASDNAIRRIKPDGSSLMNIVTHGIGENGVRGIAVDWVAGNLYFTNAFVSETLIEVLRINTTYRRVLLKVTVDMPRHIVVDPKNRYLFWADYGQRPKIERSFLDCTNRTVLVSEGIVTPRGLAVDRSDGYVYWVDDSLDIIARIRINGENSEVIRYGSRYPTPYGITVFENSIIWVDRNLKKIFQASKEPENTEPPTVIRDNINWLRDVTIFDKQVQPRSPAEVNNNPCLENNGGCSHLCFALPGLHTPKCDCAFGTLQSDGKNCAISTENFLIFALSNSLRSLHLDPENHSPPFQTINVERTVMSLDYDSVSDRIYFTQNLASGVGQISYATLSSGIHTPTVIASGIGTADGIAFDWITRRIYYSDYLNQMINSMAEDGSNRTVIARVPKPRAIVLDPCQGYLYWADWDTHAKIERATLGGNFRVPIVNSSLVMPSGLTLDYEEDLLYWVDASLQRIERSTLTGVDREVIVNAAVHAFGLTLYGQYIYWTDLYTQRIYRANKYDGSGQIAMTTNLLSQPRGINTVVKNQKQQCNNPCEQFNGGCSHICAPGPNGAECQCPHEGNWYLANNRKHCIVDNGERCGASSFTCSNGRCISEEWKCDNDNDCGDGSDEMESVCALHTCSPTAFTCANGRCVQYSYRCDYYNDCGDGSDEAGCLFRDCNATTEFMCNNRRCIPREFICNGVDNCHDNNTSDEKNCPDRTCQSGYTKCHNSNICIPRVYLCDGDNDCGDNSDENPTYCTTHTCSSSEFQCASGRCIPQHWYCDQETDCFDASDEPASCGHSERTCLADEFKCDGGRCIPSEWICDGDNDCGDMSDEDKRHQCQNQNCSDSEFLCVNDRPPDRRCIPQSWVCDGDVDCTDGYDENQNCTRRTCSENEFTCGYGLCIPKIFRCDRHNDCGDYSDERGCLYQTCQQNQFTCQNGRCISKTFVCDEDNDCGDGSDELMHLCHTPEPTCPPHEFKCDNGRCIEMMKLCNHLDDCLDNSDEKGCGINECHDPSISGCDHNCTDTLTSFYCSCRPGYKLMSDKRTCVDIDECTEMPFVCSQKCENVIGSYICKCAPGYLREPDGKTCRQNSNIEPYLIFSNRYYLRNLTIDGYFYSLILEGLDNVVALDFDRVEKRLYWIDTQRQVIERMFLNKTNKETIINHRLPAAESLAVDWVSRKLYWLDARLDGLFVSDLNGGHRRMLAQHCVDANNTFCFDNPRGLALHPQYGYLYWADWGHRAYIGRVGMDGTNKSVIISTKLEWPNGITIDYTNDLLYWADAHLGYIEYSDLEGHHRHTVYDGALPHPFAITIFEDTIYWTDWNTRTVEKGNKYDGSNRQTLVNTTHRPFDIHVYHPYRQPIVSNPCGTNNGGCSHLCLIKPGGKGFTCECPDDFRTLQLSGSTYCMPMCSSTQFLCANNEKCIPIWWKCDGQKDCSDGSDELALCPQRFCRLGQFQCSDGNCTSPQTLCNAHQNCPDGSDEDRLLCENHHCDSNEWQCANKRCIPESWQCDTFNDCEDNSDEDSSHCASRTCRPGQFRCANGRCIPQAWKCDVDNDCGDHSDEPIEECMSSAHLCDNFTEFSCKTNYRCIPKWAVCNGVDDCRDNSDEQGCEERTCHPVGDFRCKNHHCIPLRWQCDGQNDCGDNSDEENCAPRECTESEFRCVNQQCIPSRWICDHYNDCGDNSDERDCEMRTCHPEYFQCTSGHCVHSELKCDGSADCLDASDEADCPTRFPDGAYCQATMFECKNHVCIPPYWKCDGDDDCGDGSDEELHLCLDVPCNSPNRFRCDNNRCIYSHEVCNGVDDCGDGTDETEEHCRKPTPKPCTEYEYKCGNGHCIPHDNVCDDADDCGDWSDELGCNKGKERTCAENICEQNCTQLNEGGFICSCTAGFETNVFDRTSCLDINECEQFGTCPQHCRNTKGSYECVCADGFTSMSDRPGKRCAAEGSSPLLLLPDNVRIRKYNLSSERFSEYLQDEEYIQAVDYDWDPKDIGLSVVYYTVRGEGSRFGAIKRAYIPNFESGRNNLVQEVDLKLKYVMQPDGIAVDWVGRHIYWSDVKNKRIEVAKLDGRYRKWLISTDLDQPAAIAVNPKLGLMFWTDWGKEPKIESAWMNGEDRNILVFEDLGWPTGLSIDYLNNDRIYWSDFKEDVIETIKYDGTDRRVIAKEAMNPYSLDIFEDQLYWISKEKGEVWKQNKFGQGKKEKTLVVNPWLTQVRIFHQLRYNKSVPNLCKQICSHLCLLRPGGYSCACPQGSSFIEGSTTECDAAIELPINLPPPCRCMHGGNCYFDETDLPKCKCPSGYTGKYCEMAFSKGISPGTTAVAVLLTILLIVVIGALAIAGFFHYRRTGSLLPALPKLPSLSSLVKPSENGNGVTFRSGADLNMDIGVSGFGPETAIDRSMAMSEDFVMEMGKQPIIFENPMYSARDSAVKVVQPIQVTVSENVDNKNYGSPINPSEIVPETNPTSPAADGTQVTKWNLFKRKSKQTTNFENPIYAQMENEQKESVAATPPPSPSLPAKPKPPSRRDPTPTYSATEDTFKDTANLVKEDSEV

Molecule | Apparent VD of p97 in brain parenchyma relative to transferrin [1] [fold] | Apparent VD in the brain parenchyma ([1]; 10 nM [125I]-protein (FIG. 11b)) [ml/100 g] | Specific uptake of p97 in astrocytoma cells over astrocytes [2] | Kd (BBCEC monolayers; Site 1, published value) [nM] | Kd (BBCEC monolayers; Site 2, published value) [nM] | Binding to Megalin (Megalin)
B1 | 8.8 | 17.2 | greatly increased | – | – | –
B2 | – | – | – | 35 | 1900 | Yes
